In one assay the target is T1, human SIRPγ (human, UniProt Q9P1W8 29-387).
T1 construct: on transfected CHO-K1 cells; also called hSIRPγ
Briefly: CELISA, CHO-K1 transfectants; extrapolated. As for the experimental part: Binding of the humanized antibodies to hSIRPα was studied in CELISA format. Binding of the hSIRPα antibodies to human SIRPαV1, SIRPαV2, hSIRPβ1, and hSIRPγ was confirmed using CHO-K1 cells that had been transiently transfected with cDNA encoding the full length open reading frame of each of these respective targets subcloned into the pCI-neo vector. CHO-K1.hSIRPαV1, CHO-K1.hSIRPαV2, CHO-K1.hSIRPβ1, and CHO-K1.hSIRPγ cells were seeded in culture medium (DMEM-F12 (Gibco) supplemented with 5% New Born Calf Serum (BioWest) and Pen/Strep (Gibco)) in 96-well flat-bottom tissue culture plates and incubated at 37° C., 5% CO₂ and 95% humidity until cell layers were confluent. Subsequently, culture medium was removed and cells were incubated for 1 hour at 37° C., 5% CO₂ and 95% humidity with purified hSIRPα antibodies (10 μg/mL and dilutions thereof). Next, cells were washed with PBS-T and incubated for 1 hour at 37° C., 5% CO₂ and 95% humidity with goat-anti-human IgG-HRP conjugate (Jackson Immuno Research) or goat-anti-mouse IgG-HRP (Southern Biotech). Subsequently, cells were washed three times with PBS-T and anti-hSIRPα immunoreactivity was visualized with TMB Stabilized Chromogen (Invitrogen). Reactions were stopped with 0.5 M H₂SO₄ and absorbances were read at 450 and 610 nm. […] In Table 13 the EC50 values of the humanized hSIRPα antibodies are depicted.
Table 13: Binding of humanized and parental hSIRPα.50A antibodies to CHO-K1.hSIRPαV1, CHO-K1.hSIRPαV2, CHO-K1.hSIRPβ1, and CHO-K1.hSIRPγ cells.

Assay [1] addresses T2, hSIRPα expressed on primary human cells (human, UniProt P78324 31-504).
T2 construct: whole, on cells; also called hSIRPα on primary human CD14+ monocytes; on primary human granulocytes
As to the kind of experiment: flow cytometry on CD14+ enriched monocytes, human donor 2, AF647 goat-anti-mouse IgG. As for the experimental part: Next, the binding of hSIRPα.40A to hSIRPα expressed on primary human CD14⁺ monocytes was investigated. In addition, the ability of hSIRPα.40A to block the interaction between hSIRPα and recombinant hCD47/Fc-protein was assessed. For this purpose, CD14+ monocytes were isolated from Ficoll-purified human peripheral blood mononuclear cells (PBMCs) using RosetteSep human monocyte enrichment cocktail (Stemcell). The percentage of monocytes present after the enrichment was determined by flow cytometry on the FACSVerse (BD Biosciences) based on CD14 staining using an APC-Cy7-conjugated mouse-anti-human CD14 detection antibody (BD Biosciences). […] After this labeling procedure, cells were washed two times, resuspended in PBS/1% BSA containing 0.1 μg/mL DAPI (BioLegend), and analysed by flow cytometry on the FACSVerse (BD Biosciences). Data were processed and analysed with FlowJo V10 software (FlowJo, LLC).
To assess the blocking ability of hSIRPα.40A, CD14+ enriched monocytes cells were seeded in 96-well round bottomed tissue culture plates and incubated for 45 minutes with FcR Blocking Reagent (Miltenyi Biotec) and hSIRPα.40A antibody (20 μg/mL and dilutions thereof) in PBS/1% BSA at 4° C. […] After this labeling procedure, cells were washed two times, resuspended in PBS/1% BSA containing 0.1 μg/mL DAPI (BioLegend), and analysed by flow cytometry on the FACSVerse (BD Biosciences). […]
Background: In flow cytometry, cells or beads pass a laser one at a time.

For assay [2], the target named is T2, hSIRPα expressed on primary human cells. As to the kind of experiment: flow cytometry on CD14+ enriched monocytes, human donor 2; blocked ligand: DyLight 488-labeled recombinant hCD47/Fc. As for the experimental part:
To assess the blocking ability of hSIRPα.40A, CD14+ enriched monocytes cells were seeded in 96-well round bottomed tissue culture plates and incubated for 45 minutes with FcR Blocking Reagent (Miltenyi Biotec) and hSIRPα.40A antibody (20 μg/mL and dilutions thereof) in PBS/1% BSA at 4° C. […] After this labeling procedure, cells were washed two times, resuspended in PBS/1% BSA containing 0.1 μg/mL DAPI (BioLegend), and analysed by flow cytometry on the FACSVerse (BD Biosciences). Data were processed and analysed with FlowJo V10 software (FlowJo, LLC). […] IC50 values represent the concentration at which half of the inhibition is observed.

This is an account of results in patent publication US20180312587A1 (ADURO BIOTECH HOLDINGS EUROPE B V, published 2018).

T2 sequence (P78324 31-504): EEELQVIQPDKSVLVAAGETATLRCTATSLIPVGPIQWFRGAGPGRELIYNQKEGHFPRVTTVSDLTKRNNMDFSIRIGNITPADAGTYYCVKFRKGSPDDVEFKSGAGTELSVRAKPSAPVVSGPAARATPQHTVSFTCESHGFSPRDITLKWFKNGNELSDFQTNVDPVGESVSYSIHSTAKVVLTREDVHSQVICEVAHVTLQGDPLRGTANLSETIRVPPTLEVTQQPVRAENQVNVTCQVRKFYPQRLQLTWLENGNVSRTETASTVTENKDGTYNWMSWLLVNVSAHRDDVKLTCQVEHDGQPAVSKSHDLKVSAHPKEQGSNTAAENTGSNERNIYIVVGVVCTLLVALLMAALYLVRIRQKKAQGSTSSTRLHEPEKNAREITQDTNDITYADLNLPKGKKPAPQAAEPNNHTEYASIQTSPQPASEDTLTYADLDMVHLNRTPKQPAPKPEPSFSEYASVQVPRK
T1 sequence (Q9P1W8 29-387 limits assumed): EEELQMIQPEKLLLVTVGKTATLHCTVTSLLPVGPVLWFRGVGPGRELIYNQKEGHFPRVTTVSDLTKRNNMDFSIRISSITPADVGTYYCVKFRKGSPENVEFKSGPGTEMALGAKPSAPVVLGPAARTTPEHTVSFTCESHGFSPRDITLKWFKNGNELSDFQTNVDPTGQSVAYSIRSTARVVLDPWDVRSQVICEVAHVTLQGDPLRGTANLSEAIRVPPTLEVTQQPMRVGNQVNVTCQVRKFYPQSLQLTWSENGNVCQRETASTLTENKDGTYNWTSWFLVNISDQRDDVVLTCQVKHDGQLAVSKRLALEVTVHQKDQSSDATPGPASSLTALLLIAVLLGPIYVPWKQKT

B1: hSIRPα.50A (antibody, V domains shown)
VH: QVQLQQSGPELVKPGASVRISCKASGFTFTNYYIHWVKQRPGQGLEWIGWIYPGNVNTKYNEKFKAKATLTADKSSTTAYMQLSSLASEDSAVYFCARPTIIATDFDVWGAGTTVTVSS
VL: DIVMTQSHKFMSTSVGDRVNITCKASQGVGTAVGWYQQKPGQSPRLLIYWASTRHTGVPDRFTGSGSGTDFSLAISNVQSEDLADYFCQQYSTYPFTFGGGTNLEIK
notes: light chain constant domain not tied; also called mouse hSIRPα.50A; hSIRPα.50A.mIgG1
What is called EC50 is the concentration that produces a half-maximal response. Consider B1, for which the EC50 with human SIRPγ was 1.25 nM.

B2: hSIRPα.40A (antibody, mouse IgG1, kappa, V domains shown)
VH: EVQFQQSGTVLARPGTSVKMSCKASGSTFTSYWMHWVKQGPGQGLQWIGAIYPVNNDTTYNQKFKGKAELTVVTSTSTAYMEVSSLTNEDSAVYYCTRSFYYSLDAAWFVYWGQGTLVTVSA
VL: DIQMTQSPSSLSASLGERVSLTCRASQDIGSRLNWLQQEPDGTIKRLIYATSSLDSGVPKRFSGSRSGSDYSLTISGLESEDFVDYYCLQYASSPFTFGGGTKLEINR
notes: mouse antibody, full chains without signal peptide; also called mouse hSIRPα.40A
As a reminder, the EC50 (read off the curve) is the concentration needed to bring the measured effect to its halfway point. The low end stands for greater potency, the high end for weaker potency. With B2, in assay [1], the “EC50 (read off the curve)” value is around 0.7 nM. Moreover, in assay [2], the “IC50 (read off the curve)” value is around 0.5 nM.
